# Results published in paper doi:10.1101/2025.01.09.632085.
# Target: thrombin (UniProt P00734;P00734 328-363;364-622)
# Test: BLI
binder,measurement,value
GGTTGGTGTGGTTGG (structured_DNA) [HD1],Kd,32 ± 4 nM
